Results: the supplement of paper PMC11246515
± gives the standard deviation of the averaged measurements.

Experiment: total protein half-life in vivo (active degradation + dilution); higher = more stable protein
[1] = E. coli NCM3722 delta-clpP, growth: N-lim chemostat, doubling time 6 h
[2] = E. coli NCM3722 delta-hslV, growth: N-lim chemostat, doubling time 6 h
[3] = E. coli NCM3722 delta-smpB, growth: N-lim chemostat, doubling time 6 h
[4] = wild type E. coli NCM3722, growth: C-lim chemostat, doubling time 3 h
[5] = wild type E. coli NCM3722, growth: C-lim chemostat, doubling time 6 h
[6] = wild type E. coli NCM3722, growth: C-lim chemostat, doubling time 12 h
[7] = wild type E. coli NCM3722, growth: N-lim chemostat, doubling time 6 h
[8] = wild type E. coli NCM3722, growth: N-lim chemostat, doubling time 12 h
[9] = wild type E. coli NCM3722, growth: P-lim chemostat, doubling time 6 h
[10] = E. coli NCM3722 delta-clpP delta-lon delta-hslV, growth: N-lim chemostat, doubling time 6 h
[11] = E. coli NCM3722 delta-lon, growth: N-lim chemostat, doubling time 6 h
[12] = wild type E. coli NCM3722, growth: P-lim chemostat, doubling time 12 h

Sequence	total protein half-life in vivo [1] [h]	total protein half-life in vivo [2] [h]	total protein half-life in vivo [3] [h]	total protein half-life in vivo [4] [h]	total protein half-life in vivo [5] [h]	total protein half-life in vivo [6] [h]	total protein half-life in vivo [7] [h]	total protein half-life in vivo [8] [h]	total protein half-life in vivo [9] [h]	total protein half-life in vivo [10] [h]	total protein half-life in vivo [11] [h]	total protein half-life in vivo [12] [h]
MRLFNWRRQAVLNAMPLVKPDQVRTPWHEFWRRFRRQHMAMTAALFVILLIVVAIFARWIAPYDAENYFDYDNLNNGPSLQHWFGVDSLGRDIFSRVLVGAQISLAAGVFAVFIGAAIGTLLGLLAGYYEGWWDRLIMRICDVLFAFPGILLAIAVVAVLGSGIANVIIAVAIFSIPAFARLVRGNTLVLKQQTFIESARSIGASDMTVLLRHILPGTVSSIVVFFTMRIGTSIISAASLSFLGLGAQPPTPEWGAMLNEARADMVIAPHVAVFPALAIFLTVLAFNLLGDGLRDALDPKIKG	6.63	6.48 ± 0.35	6.59 ± 0.99	3.08 ± 0.21	6.44 ± 0.14	13.6	6.817 ± 0.047	12.4 ± 1.2	6.55 ± 0.52			
MRLLNRLNQYQRLWQPSAGKPQTVTVSELAERCFCSERHVRTLLRQAQEAGWLEWQAQSGRGKRGQLRFLVTPESLRNAMMEQALETGKQQDVLELAQLAPGELRTLLQPFMGGQWQNDTPTLRIPYYRPLEPLQPGFLPGRAEQHLAGQIFSGLTRFDNNTQRPIGDLAHHWETSTDGLRWDFYLRSTLHWHNGDAVKASHLHQRLLMLLQLPALDQLFISVKRIEVTHPQCLTFFLHRPDYWLAHRLASYCSHLAHPQFPLIGTGPFRLTQFTAELVRLESHDYYHLRHPLLKAVEYWITPPLFEKDLGTSCRHPVQITIGKPEELQRVSQVSSGISLGFCYLTLRKSPRLSLWQARKVISIIHQSGLLQTLEVGENLITASHALLPGWTIPHWQVPDEVKLPKTLTLVYHLPIELHTMAERLQATLAAEGCELTIIFHNAKNWDDTTLQAHADLMMGDRLIGEAPEYTLEQWLRCDPLWPHVFDAPAYAHLQSTLDAVQIMPDEENRFNALKAVFSQLMTDATLTPLFNYHYRISAPPGVNGVRLTPRGWFEFTEAWLPAPSQ				1.85 ± 0.39	3 ± 0.03	4.716 ± 0.0097				5.67		
MRLLPLVAAATAAFLVVACSSPTPPRGVTVVNNFDAKRYLGTWYEIARFDHRFERGLEKVTATYSLRDDGGLNVINKGYNPDRGMWQQSEGKAYFTGAPTRAALKVSFFGPFYGGYNVIALDREYRHALVCGPDRDYLWILSRTPTISDEVKQEMLAVATREGFDVSKFIWVQQPGS [P0A901]	6.28 ± 0.6	5.56 ± 0.29	5.8 ± 0.32	2.82 ± 0.082	5.41 ± 0.38	10.6 ± 2.6	5.78 ± 0.14	11.8 ± 1.4	5.43 ± 0.26	5.85 ± 0.12	6.82 ± 0.84	11.04 ± 0.072
MRLNPGQQQAVEFVTGPCLVLAGAGSGKTRVITNKIAHLIRGCGYQARHIAAVTFTNKAAREMKERVGQTLGRKEARGLMISTFHTLGLDIIKREYAALGMKANFSLFDDTDQLALLKELTEGLIEDDKVLLQQLISTISNWKNDLKTPSQAAASAIGERDRIFAHCYGLYDAHLKACNVLDFDDLILLPTLLLQRNEEVRKRWQNKIRYLLVDEYQDTNTSQYELVKLLVGSRARFTVVGDDDQSIYSWRGARPQNLVLLSQDFPALKVIKLEQNYRSSGRILKAANILIANNPHVFEKRLFSELGYGAELKVLSANNEEHEAERVTGELIAHHFVNKTQYKDYAILYRGNHQSRVFEKFLMQNRIPYKISGGTSFFSRPEIKDLLAYLRVLTNPDDDSAFLRIVNTPKREIGPATLKKLGEWAMTRNKSMFTASFDMGLSQTLSGRGYEALTRFTHWLAEIQRLAEREPIAAVRDLIHGMDYESWLYETSPSPKAAEMRMKNVNQLFSWMTEMLEGSELDEPMTLTQVVTRFTLRDMMERGESEEELDQVQLMTLHASKGLEFPYVYMVGMEEGFLPHQSSIDEDNIDEERRLAYVGITRAQKELTFTLCKERRQYGELVRPEPSRFLLELPQDDLIWEQERKVVSAEERMQKGQSHLANLKAMMAAKRGK	3.564 ± 0.03	3.26 ± 0.39	2.97 ± 0.12	2.89 ± 0.43	4.89 ± 0.71	6.36 ± 0.89	3.27 ± 0.52	4.74 ± 0.2	5.75 ± 0.71	4.75 ± 0.66	3.59 ± 0.24	8.39 ± 0.72
MRLRKYNKSLGWLSLFAGTVLLSGCNSALLDPKGQIGLEQRSLILTAFGLMLIVVIPAILMAVGFAWKYRASNKDAKYSPNWSHSNKVEAVVWTVPILIIIFLAVLTWKTTHALEPSKPLAHDEKPITIEVVSMDWKWFFIYPEQGIATVNEIAFPANTPVYFKVTSNSVMNSFFIPRLGSQIYAMAGMQTRLHLIANEPGTYDGISASYSGPGFSGMKFKAIATPDRAAFDQWVAKAKQSPNTMSDMAAFEKLAAPSEYNQVEYFSNVKPDLFADVINKFMAHGKSMDMTQPEGEHSAHEGMEGMDMSHAESAH [P0ABJ1]		6.43 ± 0.55	5.63 ± 0.44		7.01 ± 0.81		6.11 ± 0.29		5.85 ± 0.097	5.81 ± 1.2	6.06 ± 0.16	11.98 ± 0.095
MRLSDYFPESSISVIHSAKDWQEAIDFSMVSLLDKNYISENYIQAIKDSTINNGPYYILAPGVAMPHARPECGALKTGMSLTLLEQGVYFPGNDEPIKLLIGLSAADADSHIGAIQALSELLCEEEILEQLLTASSEKQLADIISRG				3.24 ± 0.38	4.03	8.65						
MRLSLPRLKMPRLPGFSILVWISTALKGWVMGSREKDTDSLIMYDRTLLWLTFGLAAIGFIMVTSASMPIGQRLTNDPFFFAKRDGVYLILAFILAIITLRLPMEFWQRYSATMLLGSIILLMIVLVVGSSVKGASRWIDLGLLRIQPAELTKLSLFCYIANYLVRKGDEVRNNLRGFLKPMGVILVLAVLLLAQPDLGTVVVLFVTTLAMLFLAGAKLWQFIAIIGMGISAVVLLILAEPYRIRRVTAFWNPWEDPFGSGYQLTQSLMAFGRGELWGQGLGNSVQKLEYLPEAHTDFIFAIIGEELGYVGVVLALLMVFFVAFRAMSIGRKALEIDHRFSGFLACSIGIWFSFQALVNVGAAAGMLPTKGLTLPLISYGGSSLLIMSTAIMMLLRIDYETRLEKAQAFVRGSR [P0ABG4]	2.97 ± 0.5	3.01	2.76 ± 0.73	2.41 ± 0.21		3.2			2.93	4.49	3.64	5
MRLTAKQVTWLKVCLHLAGLLPFLWLVWAINHGGLGADPVKDIQHFTGRTALKFLLATLLITPLARYAKQPLLIRTRRLLGLWCFAWATLHLTSYALLELGVNNLALLGKELITRPYLTLGIISWVILLALAFTSTQAMQRKLGKHWQQLHNFVYLVAILAPIHYLWSVKIISPQPLIYAGLAVLLLALRYKKLRSLFNRLRKQVHNKLSV								8.91				
MRLVQLSRHSIAFPSPEGALREPNGLLALGGDLSPARLLMAYQRGIFPWFSPGDPILWWSPDPRAVLWPESLHISRSMKRFHKRSPYRVTMNYAFGQVIEGCASDREEGTWITRGVVEAYHRLHELGHAHSIEVWREDELVGGMYGVAQGTLFCGESMFSRMENASKTALLVFCEEFIGHGGKLIDCQVLNDHTASLGACEIPRRDYLNYLNQMRLGRLPNNFWVPRCLFSPQE [P0A8P1]	4.09 ± 0.21			0.705 ± 0.05								
MRMNVFEMEGFLRGKCVPRDLKVNETNAEYLVRKFDALEAKCAALENKIIPVSAELPPANESVLLFDANGEGWLIGWRSLWYTWGQKETGEWQWTFQVGDLENVNITHWAVMPKAPEAGA			2.28	2.52					3.02 ± 0.68			5.84
MRNHQLGIYEKALAKDLSWPERLVLAKSCGFDFVEMSVDETDERLSRLDWSAAQRTSLVAAMIETGVGIPSMCLSAHRRFPFGSRDEAVRERAREIMSKAIRLARDLGIRTIQLAGYDVYYEDHDEGTRQRFAEGLAWAVEQAAASQVMLAVEIMDTAFMNSISKWKKWDEMLASPWFTVYPDVGNLSAWGNDVPAELKLGIDRIAAIHLKDTQPVTGQSPGQFRDVPFGEGCVDFVGIFKTLHKLNYRGSFLIEMWTEKAKEPVLEIIQARRWIEARMQEAGFIC				1.06	1.6 ± 0.19	2.24						
MRNKNIIMLLMSSLILSGCGPQPENKESQQQQPSTPTEQQVLAAQQAAIKEAEQSAAAAKALAQQEVQQYSDKQALQGRLQEAPTFARAAKAKATHIANPGTARYQQFDDNPVKQVAQNPLATFSLDVDTGSYANVRRFLNQGLLPPPDAVRVEEIVNYFPSDWDIKDKQSIPASKPIPFAMRYELAPAPWNEQRTLLKVDILAKDRKSEELPASNLVFLIDTSGSMISDERLPLIQSSLKLLVKELREQDNIAIVTYAGDSRIALPSISGSHKAEINAAIDSLDAEGSTNGGAGLELAYQQATKGFIKGGINRILLATDGDFNVGIDDPKSIESMVKKQRESGVTLSTFGVGNSNYNEAMMVRIADVGNGNYSYIDTLSEAQKVLNSEMRQMLITVAKDVKAQIEFNPAWVTEYRQIGYEKRQLRVEHFNNDNVDAGDIGAGKHITLLFELTLNGQKASIDKLRYAPDNKLAKSDKTKELAWLKIRWKYPQGKESQLVEFPLGPTINAPSEDMRFRAAVAAYGQKLRGSEYLNNTSWQQIKQWAQQAKGEDPQGYRAEFIRLIELADGVTDISQ	4.02 ± 0.33		2.8393 ± 0.00061									
